{"source": "patent US20250263444A1", "about": "“vIRF3-Derived Peptide and Use Thereof for Preventing or Treating Cancer” (priority 2022, published 2025)", "key": {"PKM2 [1]": {"biological_target": "T1, PKM2 (Homo sapiens, UniProt P14618)", "T1 sequence (P14618 whole entry, the tested form may be a part)": "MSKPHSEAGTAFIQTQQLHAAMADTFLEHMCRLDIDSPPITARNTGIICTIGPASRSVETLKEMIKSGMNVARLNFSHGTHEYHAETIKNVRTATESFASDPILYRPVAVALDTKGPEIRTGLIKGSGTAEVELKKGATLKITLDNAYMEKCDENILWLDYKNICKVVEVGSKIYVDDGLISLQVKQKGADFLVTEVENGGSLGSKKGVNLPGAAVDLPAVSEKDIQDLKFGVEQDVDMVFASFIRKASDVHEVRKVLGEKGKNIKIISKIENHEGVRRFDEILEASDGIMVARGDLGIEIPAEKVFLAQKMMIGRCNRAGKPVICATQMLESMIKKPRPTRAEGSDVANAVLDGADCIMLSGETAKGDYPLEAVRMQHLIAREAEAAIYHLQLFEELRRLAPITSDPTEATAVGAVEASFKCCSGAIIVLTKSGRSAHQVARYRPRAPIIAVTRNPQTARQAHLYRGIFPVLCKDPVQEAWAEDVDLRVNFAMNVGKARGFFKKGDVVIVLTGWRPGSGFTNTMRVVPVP", "experiment": "Binding of vIRF3-derived peptide fragments to PKM2 (GST-pull down / immunoprecipitation, FIG. 7)", "parameters": "expressed in transfected cells", "source_text": "A pCMV-HA-hPKM2 plasmid was provided by from the Miyagi Cancer Center Research Institute, Natori, Japan. In addition, a vIRF3 (Δ250-280) mutant was generated by sequentially deleting 10 amino acids from alanine 250 using a QuikChange XL site-directed mutagenesis kit (Agilent). Primer pairs used in vIRF3 deletion mutation were as follows: vIRF3(Δ250-260) forward 5′-[…]-3′ (SEQ ID NO: 8), vIRF3(Δ250-260) reverse 5′-[…]-3′ (SEQ ID NO: 9), vIRF3(Δ260-270) forward 5′-[…]-3′ (SEQ ID NO: 10), vIRF3(Δ260-270) reverse 5′-[…]-3′ (SEQ ID NO: 11), vIRF3(Δ270-280) forward 5′-[…]-3′ (SEQ ID NO: 12), and vIRF3(Δ270-280) reverse 5′-[…]-3′ (SEQ ID NO: 13). GST-tagged vIRF3 250-260, 260-270, and 270-280 were subcloned into a pEBG-GST vector with BamHI and NotI restriction sites using the following primers: vIRF3(250-260) forward 5′-[…] GGC-3′ (SEQ ID NO: 14), vIRF3(250-260) reverse 5′-[…] CG-3′ (SEQ ID NO: 15), vIRF3(260-270) forward 5′-GATCCGCCACCAT […]-3′ (SEQ ID NO: 16), vIRF3(260-270) reverse 5′-[…] G-3′ (SEQ ID NO: 17), vIRF3(270-280) forward 5′-[…] GC-3′ (SEQ ID NO: 18), and vIRF3 270-280 reverse 5′-[…] GGCG-3′ (SEQ ID NO: 19).\nThe indicated cells were infected regardless of the presence or absence of combination of plasmids. […] Cell lysates were immunoprecipitated against indicated proteins and analyzed by immunoblotting according to methods known in the art."}, "PKM2 [2]": {"biological_target": "T1, PKM2", "experiment": "Pyruvate kinase activity assay in LECs treated with TAT or TAT-VDP", "assay_type": "cell-based", "parameters": "endogenous in cells; host or cells: E6/E7-immortalised LECs (LEC-V5-vIRF3 or LEC-vector)", "conditions": "LEC-V5-vIRF3 cells; VDP fused to HIV-1 TAT; FIG. 8C", "protocol": "Pyruvate kinase activity assay was performed with a Pyruvate Kinase Assay Kit (Sigma Aldrich) according to manufacturer's instructions. Briefly, LECs expressing a pCDH vector, vIRF3, and vIRF3(Δ250-280), respectively were harvested and washed twice with 1×PBS. The cells were suspended in 50 μl of a pyruvate kinase assay buffer and incubated for 15 minutes. Cell debris was removed by centrifugation at 13,000 rpm for 15 minutes. The supernatant was transferred to a 96-well plate and added with a kinase assay mixture. Absorbance was measured at 570 nm wavelength using a Varioskan Lux microplate reader (Thermo scientific)."}, "[3]": {"system": "recombinant KSHV-infected LECs", "experiment": "Xenograft model, subcutaneous peptide administration", "assay_type": "in vivo, mice"}, "LEC-V5-vIRF3": {"system": "LEC-V5-vIRF3", "experiment": "Chorioallantoic membrane (CAM) invasion assay", "assay_type": "in vivo, chick", "conditions": "0.2 mg peptide at 24 and 48 hours after cell seeding; IHC; FIG. 8D", "protocol": "The chick fertilized eggs were incubated at 37.5° C. with 70% humidified atmosphere in a Rcom D-50 incubator (Autoelex). After embryonic day (ED) 5, a 1.5 cm square hole was opened on the eggshell and sealed with a sterile parafilm tape. Embryos were monitored by daily candling. On ED 10, sterile silicone rings were placed onto the CAM of the embryo and added with indicated cells, and then the cells were seeded. 0.2 mg of TAT (a control peptide containing only a TAT sequence of HIV-1 (synthesized by Bionics)) or TAT-VDP according to the present invention (vRIF3-derived aa250-260 peptide bound with a TAT sequence (synthesized by Bionics)) was treated at 24 and 48 hours after cell seeding. Approximately 1 cm^2 of CAM around the silicone ring was harvested and fixed with 4% paraformaldehyde at 4° C. for 24 hours. Thereafter, samples were treated for immunohistochemistry and Hematoxyling and Eosin (H&E) staining."}, "ATP-citrate lyase (ACLY)": {"system": "ATP-citrate lyase (ACLY)", "experiment": "Immunoblotting with anti-acetyl-lysine antibody of LEC stable cell lines treated with ACLY inhibitor", "assay_type": "cell-based", "conditions": "LEC lines pCDH, V5-vIRF3, V5-vIRF3(Δ250-280) treated with BMS303141", "protocol": "Acetyl-CoA is a crucial metabolite that provides acetyl groups for acetylation reaction of proteins including histone. To better understand the importance of acetyl-CoA upregulation by vIRF3 in LEC, first, it was confirmed whether vIRF3 may increase the overall acetylation level in LEC. To this end, cell lysates were analyzed by immunoblotting (IB) using an anti-acetyl-lysine antibody. […] Especially, cytosolic acetyl-CoA, which was involved in lysine acetylation of protein, regulating the activity, stability, or localization of many cell proteins is primarily generated by the translocation of citrate from the mitochondria to the cytoplasm via ATP-citrate lyase (ACLY). Therefore, three LEC stable cell lines encoding expression vectors of pCDH, V5-vIRF3, and V5-vIRF3(Δ250-280) were treated with an ACLY inhibitor BMS303141 and then analyzed by IB with an anti-acetyl-lysine antibody."}, "tetrameric form of PKM2": {"biological_target": "T2, tetrameric form of PKM2 (Homo sapiens, UniProt P14618)", "T2 construct": "endogenous in cells; host or cells: E6/E7-immortalised LECs stably expressing V5-vIRF3 by lentivirus (PKM2 endogenous, vIRF3 transduced)", "T2 sequence (P14618 2-531 limits assumed)": "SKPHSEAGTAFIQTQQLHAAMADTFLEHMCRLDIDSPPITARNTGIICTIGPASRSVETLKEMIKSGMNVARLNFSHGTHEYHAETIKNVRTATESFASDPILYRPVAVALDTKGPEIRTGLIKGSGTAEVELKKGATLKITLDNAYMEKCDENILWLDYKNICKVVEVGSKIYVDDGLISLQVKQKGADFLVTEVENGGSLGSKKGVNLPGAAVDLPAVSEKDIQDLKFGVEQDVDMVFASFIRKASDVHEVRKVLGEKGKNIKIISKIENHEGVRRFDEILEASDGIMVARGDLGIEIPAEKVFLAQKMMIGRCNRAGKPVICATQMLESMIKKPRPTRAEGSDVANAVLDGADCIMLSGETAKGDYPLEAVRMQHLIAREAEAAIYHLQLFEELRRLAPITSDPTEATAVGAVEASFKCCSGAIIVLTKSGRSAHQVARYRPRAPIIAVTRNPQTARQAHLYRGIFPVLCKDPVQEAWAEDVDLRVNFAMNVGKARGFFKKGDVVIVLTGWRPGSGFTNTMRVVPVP", "experiment": "PKM2 cross-linking and gradient SDS-PAGE immunoblotting", "assay_type": "cell-based", "conditions": "LECs expressing vIRF3; FIG. 8B", "protocol": "293T cells were infected with indicated combination of plasmids and harvested 48 hours after infection. The cells were lysed with a NP40 lysis buffer supplemented with a protease inhibitor (150 mM NaCl, 0.5% NP40, 50 mM pH 8.0 Tris-HCl) and treated with 0.1% glutaraldehyde for 4 minutes at room temperature. Thereafter, gradient SDS-PAGE was performed with NuPAGE 4-12% Bis-Tris gel (Invitrogen) and analyzed by immunoblotting."}}}
{"molecule": "vIRF3(270-280): fragment peptide of amino acids 270-280 of KSHV vIRF3 (SEQ ID NO: 5) (DEDLFDLLGIP)", "values": [{"measurement": "binding to PKM2", "setting": "PKM2 [1]", "value": "mutual-bound to PKM2"}]}
{"molecule": "vIRF3-derived peptide: vIRF3-derived peptide of SEQ ID NO: 1, included within aa 250-280 of KSHV vIRF3 (ACALMYHVGQEMDMLMRAMCDEDLFDLLGIP)", "values": [{"measurement": "PK activity upregulated by vIRF3 expression", "setting": "PKM2 [2]", "value": "significantly inhibited"}, {"measurement": "size and volume of tumor", "setting": "[3]; subcutaneous injection, animal model transplanted with LECs infected with KSHV", "value": "significantly reduced"}, {"measurement": "invasion of LEC-V5-vIRF3 in CAM (invasive activity)", "setting": "LEC-V5-vIRF3", "value": "significantly inhibited"}]}
{"molecule": "COc1ccc(-c2ccccc2)cc1NS(=O)(=O)c1cc(Cl)cc(Cl)c1O", "note": "[BMS303141]", "values": [{"measurement": "increase of total acetylation levels by vIRF3", "setting": "ATP-citrate lyase (ACLY)", "value": "the increase of total acetylation levels was not confirmed"}]}
{"molecule": "vIRF3(260-270): fragment peptide of amino acids 260-270 of KSHV vIRF3 (SEQ ID NO: 4) (EMDMLMRAMCD)", "values": [{"measurement": "binding to PKM2", "setting": "PKM2 [1]", "value": "mutual-bound to PKM2"}]}
{"molecule": "TAT-VDP: vRIF3-derived aa250-260 peptide bound with a TAT sequence of HIV-1 for intracellular delivery (synthesized by Bionics) (RRRQRRKKRGYGEQGVHYMLACA)", "values": [{"measurement": "vIRF3-mediated tetrameric form of PKM2", "setting": "tetrameric form of PKM2", "value": "sufficiently prevented"}, {"measurement": "tumor formation", "setting": "[3]; 0.2 mg peptide twice per week for 30 days, subcutaneous, FIG. 8E", "value": "remarkably inhibited"}]}
